From paper doi:10.1101/2023.06.01.543357, “Novel histones and histone variant families in prokaryotes” (bioRxiv, 2023)

Biological target: the molecule itself
Assay: crystal structure; HTkC at 4.0 mg/mL in 50 mM Tris-HCl pH 7.0, 100 mM KCl, 10% glycerol; sitting drop vapour diffusion, reservoir 0.01 M trisodium citrate, 33% (w/v) PEG 6000; space group P212121, 1.84 Å; four monomers in the asymmetric unit; dimers to tetramer

B1: face-to-face (FtF) histone from Thermococcus kodakarensis (HTkC) (natural protein)
chain: MAEMLVKSKVKEFVKSVDPEMRVSPEFYDALEAEVKALVEKAIKRAQAEGRKTLYARHV
notes: Face-to-face histone HTkC of Thermococcus kodakarensis, product of gene TK1040 (synthesised gene cloned into pET30b, plasmid pRD503); purification was by heat, heparin and size exclusion; The crystal holds four monomers (two dimers) in the asymmetric unit, forming a torus-shaped tetramer; also called FtF histone HTkC; TK1040; source: E. coli BL21(DE3)pLysS, purified (heat step at 70 °C, HiTrap …)
B1 was tested, and the “stoichiometry N” value was 4.
